Paper PMC7942993
Residue numbers refer to the chain shown, from its start.

Experiments:
Experiment in all cases: EMSA
Conditions in all cases: EMSA: 40 mM HEPES pH 7.9, 300 mM KCl, 10% glycerol, 8% Ficoll, 2 mM EDTA, 0.2 mM MgCl2, 1 mM DTT, 600 ug BSA, 30 ug poly(dI-dC), 30 ul, 20 min, room …
[1] = target: T1, His-TRF1 T358D T358D (Homo sapiens) (UniProt P54274)
T1 sequence: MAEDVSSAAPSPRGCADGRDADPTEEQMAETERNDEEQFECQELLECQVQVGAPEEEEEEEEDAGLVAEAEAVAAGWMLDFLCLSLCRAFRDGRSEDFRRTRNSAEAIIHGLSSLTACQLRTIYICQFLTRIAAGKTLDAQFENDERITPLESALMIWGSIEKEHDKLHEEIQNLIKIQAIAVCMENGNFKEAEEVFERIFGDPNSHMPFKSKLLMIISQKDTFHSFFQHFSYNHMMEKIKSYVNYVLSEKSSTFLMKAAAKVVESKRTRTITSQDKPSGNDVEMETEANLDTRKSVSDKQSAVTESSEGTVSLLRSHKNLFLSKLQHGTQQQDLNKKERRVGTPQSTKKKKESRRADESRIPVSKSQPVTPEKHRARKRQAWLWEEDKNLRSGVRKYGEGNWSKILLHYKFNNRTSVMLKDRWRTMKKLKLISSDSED

[2] = target: T2, His-TRF1 T273D T273D (Homo sapiens) (UniProt P54274)
T2 sequence: T1 sequence with T273D, D358T

[3] = target: T3, His-TRF1 WT (Homo sapiens) (UniProt P54274)
T3 sequence: T1 sequence with D358T

GGGTTAGGGTTAGGGTTAGGGTTAGGGTTAGGGTTAGGGTTAGGGCCCCTC (double strand) [ds (TTAGGG)7 telomeric probe]
binding signal [1]: > 1 fold of WT | binding signal [2]: > 1 fold of WT | binding signal (fold of WT (reference)) [3]: 1
